For experiment [1], the target named is T1, human mutCALR on BaF3 cells stably expressing human MPL and human mutCALR (MPL-mutCALR cells) (human).
T1 construct: also called mutant calreticulin
T1 chain: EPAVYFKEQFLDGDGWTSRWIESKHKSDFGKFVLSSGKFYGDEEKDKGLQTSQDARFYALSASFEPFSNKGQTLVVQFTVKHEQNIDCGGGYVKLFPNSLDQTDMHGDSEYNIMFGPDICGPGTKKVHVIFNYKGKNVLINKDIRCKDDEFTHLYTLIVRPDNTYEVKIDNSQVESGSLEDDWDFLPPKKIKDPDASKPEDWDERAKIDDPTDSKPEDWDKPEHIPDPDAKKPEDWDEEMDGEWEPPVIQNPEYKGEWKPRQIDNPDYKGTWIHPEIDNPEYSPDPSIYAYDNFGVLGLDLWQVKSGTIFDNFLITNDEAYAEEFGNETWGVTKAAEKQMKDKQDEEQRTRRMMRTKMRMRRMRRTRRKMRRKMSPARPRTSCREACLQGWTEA
Nature of the experiment: flow cytometry, BaF3 MPL-mutCALR cells. As for the experimental part:
On the day of the assay, cells were washed and resuspended in assay buffer. Approximately 200,000 cells/well were added to 96-well plates and stained with the indicated concentration of antibodies for 30 minutes on ice. Cells were then washed and stained with goat anti-human secondary conjugated to R-phycoerythrin (R-PE) (Jackson Immuno Research Laboratories) for 30 minutes on ice. The cells were then washed and analyzed by flow cytometry.

In experiment [2] the target is T2, human Type 1 mutCALR on Ba/F3 cells expressing MPL and Type 1 mutCALR (human).
T2 chain: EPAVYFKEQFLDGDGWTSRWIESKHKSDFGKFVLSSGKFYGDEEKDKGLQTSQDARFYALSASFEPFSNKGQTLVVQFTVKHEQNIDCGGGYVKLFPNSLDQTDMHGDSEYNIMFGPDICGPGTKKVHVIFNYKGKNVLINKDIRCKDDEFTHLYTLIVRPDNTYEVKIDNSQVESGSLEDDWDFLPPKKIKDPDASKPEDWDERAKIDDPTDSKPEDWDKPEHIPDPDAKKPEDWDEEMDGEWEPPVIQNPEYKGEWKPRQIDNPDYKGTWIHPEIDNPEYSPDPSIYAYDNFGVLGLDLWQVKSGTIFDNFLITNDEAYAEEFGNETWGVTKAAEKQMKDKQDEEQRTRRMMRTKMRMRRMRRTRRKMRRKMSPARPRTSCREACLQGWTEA
The experiment can be described thus: cell-based or functional assay.

Experiment [3] deals with MBP protein (UniProt P0AEX9 27-392 = MBP). Nature of the experiment: SPR (Biacore 8K), antibody captured on anti-human IgG (Fc), MBP injected. As for the experimental part:
Experiment 1: Recombinant MBP-mutCALR Type 1 fusion protein was custom made at Cepter (cepterbiopartners.com). Data for the interaction of antibodies with recombinant MBP-mutCALR Type 1 fusion protein were collected at 25° C. on a Biacore 8K instrument (Cytiva, Marlborough, Mass.), and all reagents were obtained from Cytiva unless otherwise specified. The experiments were conducted using Tris-buffered saline (pH 7.2), 0.005% Surfactant P20, 1 mM CaCl₂) as running buffer. To prepare the capture surfaces, anti-human IgG (Fc) antibodies (Product #29234600) was amine-coupled onto a CM4 chip (Product #BR100534) under standard conditions using an Amine Coupling Kit (Product #BR100050). […] The kinetics parameters were obtained by applying 1:1 binding model to fit the data from multiple-cycle injection experiments using Biacore Insight Evaluation software.

B1: anti-mutCALR antibody clone 43 (antibody, human IgG1, lambda, V domains shown)
VH: EVQLVQSGAEVKKPGASVKVSCKASGGTFSSYAISWVRQAPGQGLEWMGGIIPIFGTANYAQKFQGRVTITADESTSTAYMELSSLRSEDTAVYYCASSPLRGSGWYWHYYYGMDVWGQGTTVTVSS
VL: not shown
notes: human IgG1
For B1, the “MPL-mutCALR AUC” value in experiment [1] came to 27900. The “IC50, inhibition of pSTAT5” value in experiment [2] is 6.9 µg/mL.

B2: anti-mutCALR antibody clone 49 (antibody, human IgG1, lambda, V domains shown)
VH: EVQLVQSGAEVKKPGSSVKVSCKASGGTFSSYAISWVRQAPGQGLEWMGGIIPIFGTANYAQKFQGRVTITADESTSTAYMELSSLRSEDTAVYYCASSPLRGSGWYWHYYYGMDVWGQGTTVTVSS
VL: SYELTQPPSVSVAPGKTARITCGGNNIRAKHVHWYQQKPGQSPVLVIYQDSKRPSGIPERFSGSNSGSTATLTISRVEAGDEADYYCQVWDSSTVVFGGGTKLTVLG
notes: human IgG1
Take B2: in experiment [1], the EC50 amounted to 0.89 µg/mL and the “MPL-mutCALR AUC” value was found to be 36400. Besides, the “IC50, inhibition of pSTAT5” value in experiment [2] worked out at 9.3 µg/mL.

B3: anti-mutCALR antibody clone 45 (antibody, human IgG1, lambda, V domains shown)
VH: EVQLVQSGAEVKKPGSSVKVSCKASGGTFSSYAISWVRQAPGQGLEWMGGIIPIFGTANYAQKFQGRVTITADESTSTAYMELSSLRSEDTAVYYCASSPLRGSGWYWHYYYGMDVWGQGTTVTVSS
VL: SYVLTQPLSVSVAPGQTARITCGGNNIGRKSVHWYQQKPGQAPVLVIYRDSNRPSGIPERFSGSNSGNTATLTISRAQAGDEADYYCQVWDSSTVVFGGGTKLTVLG
notes: human IgG1
Turning to B3, in experiment [1], the “MPL-mutCALR AUC” value was found to be 29800. Also, the “IC50, inhibition of pSTAT5” value in experiment [2] is 13 µg/mL.

B4: anti-mutCALR antibody clone 51 (antibody, human IgG1, lambda, V domains shown)
VH: EVQLVQSGAEVKKPGSSVKVSCKASGGTFSSYAISWVRQAPGQGLEWMGGIIPIFGTANYAQKFQGRVTITADESTSTAYMELSSLRSEDTAVYYCASSPLRGSGWYWHYYYGMDVWGQGTTVTVSS
VL: SYELTQPPSVSVAPGKTARITCGGNKIGTKSVHWYQQKPGQAPVLVIYQDSKRPSGIPERFSGSNSGNTATLTISGTQAMDEADYYCQAWGSSTVVFGGGTKLTVLG
notes: human IgG1
B4: in experiment [1], the EC50 amounted to 1.15 µg/mL and the “MPL-mutCALR AUC” value turned out to be 37300. The “IC50, inhibition of pSTAT5” value in experiment [2] is 14 µg/mL.

B5: anti-mutCALR antibody clone 50 (antibody, human IgG1, lambda, V domains shown)
VH: QMQLVQSGAEVKKPGSSVKVSCKASGGTFSSYAISWVRQAPGQGLEWMGGIIPIFGTANYAQKFQGRVTITADESTSTAYMELSSLRSEDTAVYYCASSPLRGSGWYWHYYYGMDVWGQGTTVTVSS
VL: SYVLTQPPSVSVAPGKTARITCGGNNIGTKSVHWYQQKPGQSPVLVIYQDRKRPSGIPERFSGSNSGNTATLTISGTQAMDEADYYCQVWDSSTEVFGGGTKLTVLG
notes: human IgG1
For B5, in experiment [1], the EC50 came to 0.8 µg/mL and the “MPL-mutCALR AUC” value came to 36700. Moreover, in experiment [2], the “IC50, inhibition of pSTAT5” value was found to be 28 µg/mL.

B6: anti-mutCALR antibody clone 37 (antibody, human IgG1, lambda, V domains shown)
VH: QVQLVQSGAEVKKPGATVKISCKVSGYSFTDYFIHWVQQAPGKGLAWVGLVDPEDGETIYAEKFQGRVTITADTSTDTAYMELSSLRSEDTAVYYCATPGGILTDPDAFDIWGQGTMVTVSS
VL: QSALTQPASVSGSPGQSITISCTGTSSDVGGYNYVSWYQQHPGKAPKLMIYDVSNRPSGVSNRFSGSKSGNTASLTISGLQAEDEADYYCSSYTSSSTFYVFGTGTKVTVLG
notes: human IgG1; group 2
On to B6, for which the binding result in experiment [3] is given as “no binding (tested: 250 nM)”.

B7: anti-mutCALR antibody clone 35 (antibody, human IgG1, lambda, V domains shown)
VH: QVQLVQSGAEVKKPGATVKISCKVSGYSFTDYFIHWVQQAPGKGLAWVGLVDPEDGETIYAERFQGRVTITADTSTDTAYMELSSLRSEDTAVYYCATPGGILTDPDAFDIWGQGTMVTVSS
VL: QSALTQPASVSGSPGQSITISCTGTSSDVGGYNYVSWYQQHPGKAPKLMIYEVSNRPSGVSNRFSGSKSGNTASLTISGLQAEDEADYYCSSYTSSSTPYVFGTGTKVTVLG
notes: human IgG1; group 2
Turning to B7, the binding result in experiment [3] is reported as “no binding (tested: 250 nM)”.

B8: anti-mutCALR antibody clone 36 (antibody, human IgG1, lambda, V domains shown)
VH: QVQLVQSGAEVKKPGATVKISCKVSGYSFTDYFIHWVQQAPGKGLAWVGLVDPEDGETIYAEKFQGRVTITADTSTDTAYMELSSLRSEDTAVYYCATPGGILTDPDAFDIWGQGTMVTVSS
VL: QSALTQPRSVSGSPGQSVTISCAGTGSDVGGYNYVSWYQHHPGKAPKLMIYDVNKRPSGVPDRFSGSKSGNTASLTISGLQAEDEADYYCSSYTSSSTFYVFGTGTKVTVLG
notes: human IgG1; group 2
Take B8: the binding result in experiment [3] was “no binding (tested: 250 nM)”.

B9: anti-mutCALR antibody clone 4 (antibody, human IgG1, lambda, V domains shown)
VH: EVQLVQSGAEVKKPGASVKVSCKVSGYTLTELSMQWVRQAPGKGLEWMGGFDPDDGETMYAEKFQGRLTVTEDTSTDTVYMELRSLTSEDTALYFCATSPGYDFFDYWGQGTLVTVSS
VL: SYVLTQPPSVSVAPGQTARITCGGNNIGSKSVHWYQQKPGQAPVLVVYDDSDRPSGIPERFSGSNSGNTATLTINRVEAGDEADYYCQVWDSSNDLLIFGGGTKLTVLG
On to B9, for which the binding result in experiment [3] is “no binding (tested: 250 nM)”.

B10: anti-mutCALR antibody clone 5 (antibody, human IgG1, lambda, V domains shown)
VH: EVQLVQSGAEVKKPGASVKVSCKVSGYTLTELSMQWVRQAPGKGLEWMGGFDPDDGETMYAEKFQGRLTVTEDTSTDTVYMELRSLTSEDTALYFCATSPGYDFFDYWGQGTLVTVSS
VL: SYVLTQPPSVSVAPGQTASITCVGTNFGSKNVHWYQQRPGQAPVLVVYDDSDRPSGIPERFSGSNSGNTATLTISRVEAGDEADYYCQVWDSSSDHLIFGGGTKLTVLG
notes: human IgG1; group 1
In the case of B10, the binding result in experiment [3] is reported as “no binding (tested: 250 nM)”.

B11: anti-mutCALR antibody clone 3 (antibody, human IgG1, lambda, V domains shown)
VH: EVQLVQSGAEVKKPGASVKVSCKVSGYTLTELSMQWVRQAPGKGLEWMGGFDPDDGETMYAERFQGRLTVTEDTSTDTVYMELRSLTSEDTALYFCATSPGYDFFDYWGQGTLVTVSS
VL: SYVLTQPPSVSVAPGQTARITCGGNNIGSKSVHWYQQKPGQAPVLVVYDDSDRPSGIPERFSGSNSGNTATLTINRVEAGDEADYYCQVWDSSNDLLIFGGGTKLTVLG
notes: human IgG1; group 1
For the molecule B11, the binding result in experiment [3] is given as “no binding (tested: 250 nM)”.

B12: anti-mutCALR antibody clone 1 (antibody, human IgG1, lambda, V domains shown)
VH: EVQLVQSGAEVKKPGASVKVSCKVSGYTLTELSMQWVRQAPGKGLEWMGGFDPDDGETMYAEKFQGRLTVTEDTSTDTVYMELRSLTSEDTALYFCATSPGYDFFDYWGQGTLVTVSS
VL: SYVLTQPPSVSVAPGKTARITCGGNYIGSKSVHWYQQKPGQAPVLVVYDDGDRPSGIPARFSGSNSGNTATLTISRVEAGDEADYYCQVWDSISDHVVFGGGTKLTVLG
notes: human IgG1; group 1
As for B12, the binding result in experiment [3] is “no binding (tested: 250 nM)”.

B13: anti-mutCALR antibody clone 7 (antibody, human IgG1, lambda, V domains shown)
VH: EVQLVQSGAEVKKPGASVKVSCKVSGYTLTELSMQWVRQAPGKGLEWMGGFDPDDGETMYAEKFQGRLTVTEDTSTDTVYMELRSLTSEDTALYFCATSPGYDFFDYWGQGTLVTVSS
VL: SYVLTQPPSVSVAPGQTASITCVGTNFGSKNVHWYQQRPGQAPVLVVYDDSDRPSGIPERFSGSNSGNTATLTINRVEAGDEADYYCQVWDSSNDLLIFGGGTKLTVLG
notes: human IgG1; group 1
As for B13, the binding result in experiment [3] is recorded as “no binding (tested: 250 nM)”.

B14: anti-mutCALR antibody clone 2 (antibody, human IgG1, lambda, V domains shown)
VH: EVQLVQSGAEVKKPGASVKVSCKVSGYTLTELSMQWVRQAPGKGLEWMGGFDPDDGETMYAEKFQGRLTVTEDTSTDTVYMELRSLTSEDTALYFCATSPGYDFFDYWGQGTLVTVSS
VL: SYELTQPPSVSVAPGKTARITCGGDNIGSKSVHWYQQKPGQAPVLVVYDDSDRPSGIPERFSGSNSGNTATLTISRVEAGDEADYYCQVWDSSIDHLIFGGGTKVTVLG
notes: human IgG1; group 1
For the molecule B14, the binding result in experiment [3] is “no binding (tested: 250 nM)”.

These data come from patent publication US20230272055A1 (Incyte, published 2023).
